Results on one substance are retold here after article doi:10.64898/2025.12.15.694443.

The experiment has as its target BRAF kinase domain (his6-BRAF^445-723-intein, intein cleaved) (human) (UniProt P15056). The experiment can be described thus: mass photometry.

Usually stoichiometry N stands for the number of molecules, sites or subunits per partner or assembly.

“BRAF kinase domain (his6-BRAF^445-723-intein, intein cleaved) (from UniProt P15056 445-723) (domain or fragment)” registered a stoichiometry N of 2.
